Measured values published in US20240287166A1 (published 2024).

Target: T1, CSP on P. falciparum sporozoites (Plasmodium falciparum, UniProt P19597 19-374)
T1 construct: whole, on cells; also called P. falciparum sporozoites, which present CSP in its native conformation
Assay: sporozoite ELISA, mouse sera Day 7 (FIG. 6D)

T1 sequence (P19597 19-374): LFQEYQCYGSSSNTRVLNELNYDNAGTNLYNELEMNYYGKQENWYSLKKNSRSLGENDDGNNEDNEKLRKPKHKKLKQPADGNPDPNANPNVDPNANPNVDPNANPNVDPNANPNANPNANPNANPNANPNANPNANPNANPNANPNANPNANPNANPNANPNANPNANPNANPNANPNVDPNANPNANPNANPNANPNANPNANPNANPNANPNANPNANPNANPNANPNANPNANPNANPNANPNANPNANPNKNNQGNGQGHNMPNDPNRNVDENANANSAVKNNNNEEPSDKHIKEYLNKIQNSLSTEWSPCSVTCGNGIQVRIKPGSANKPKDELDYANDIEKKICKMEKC

B1: 10e DMAb-2 (antibody, human IgG1, lambda, V domains shown)
VH: QVQLVESGGGVVQPGRSLRLSCAASGFAFSNYGMHWVRQAPGKGLEWVAVIWHDGSLKYYTQSVKGRFTISRDNSKNTLYLQMNSLRAEDTAVYYCTVWYLETPDDGFDIWGQGTMVTVSS
VL: QLVLTQPPSASASLGVSVTLTCTLSHGHTSKAIAWHQQQPGKGPRYLMKVNSDGSHTKGAAVPDRFSGSTSGAERHFTISNLQSDDEADYYCQAWDSGIWVFGGGTKLTVLG
notes: also called MGU10-based engineered DMAb 2; 10e DMAb-2 (MGU10 VH-1 / MGU10 VL)
binding result: binds
